Patent publication US20090238814A1

Experiments:
[1] = target: wheat germ agglutinin (Triticum vulgaris, WGA)-agarose CL-4B (Triticum vulgaris) (UniProt P10968); test: WGA-agarose lectin affinity chromatography after neuraminidase digestion of the enzyme
[2] = target: wheat germ agglutinin (Triticum vulgaris, WGA)-agarose CL-4B (Triticum vulgaris) (UniProt P10968); test: WGA-agarose lectin affinity chromatography after neuraminidase digestion, eluted with 0.1 M GlcNAc
[3] = target: wheat germ agglutinin (Triticum vulgaris, WGA)-agarose CL-4B (Triticum vulgaris) (UniProt P10968); test: WGA-agarose lectin affinity chromatography after neuraminidase digestion, eluted with 0.5 M GlcNAc
[4] = target: wheat germ agglutinin (Triticum vulgaris, WGA)-agarose CL-4B (Triticum vulgaris) (UniProt P10968); test: WGA-agarose lectin affinity chromatography, eluted with 0.1 M GlcNAc
[5] = target: wheat germ agglutinin (Triticum vulgaris, WGA)-agarose CL-4B (Triticum vulgaris) (UniProt P10968); test: WGA-agarose lectin affinity chromatography, eluted with 0.5 M GlcNAc
[6] = target: wheat germ agglutinin (Triticum vulgaris, WGA)-agarose CL-4B (Triticum vulgaris) (UniProt P10968); test: WGA-agarose lectin affinity chromatography, enzyme activity of fractions
[7] = target: concanavalin A (Canavalia ensiformis, ConA)-sepharose 4B (Canavalia ensiformis) (UniProt P02866); test: ConA-sepharose lectin affinity chromatography, enzyme activity of fractions
[8] = target: concanavalin A (Canavalia ensiformis, ConA)-sepharose 4B (Canavalia ensiformis) (UniProt P02866); test: ConA-sepharose lectin affinity chromatography, eluted with 0.5 M alpha-methyl-D-mannopyranoside
[9] = target: concanavalin A (Canavalia ensiformis, ConA)-sepharose 4B (Canavalia ensiformis) (UniProt P02866); test: ConA-sepharose lectin affinity chromatography, eluted with 0.01 M alpha-methyl-D-mannopyranoside
[10] = target: wheat germ agglutinin (Triticum vulgaris, WGA)-agarose CL-4B (Triticum vulgaris) (UniProt P10968); test: WGA-agarose lectin affinity chromatography

Chain of UniProt P10968 (P10968 27-197): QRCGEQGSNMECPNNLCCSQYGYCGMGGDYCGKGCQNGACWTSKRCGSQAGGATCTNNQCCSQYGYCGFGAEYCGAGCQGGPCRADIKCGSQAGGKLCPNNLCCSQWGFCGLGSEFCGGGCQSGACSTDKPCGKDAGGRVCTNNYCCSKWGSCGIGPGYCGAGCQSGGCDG

Row | percent of relative activity in Unbound fraction [1] [%] | percent of relative activity in Weakly Bound fraction [2] [%] | percent of relative activity in Strongly Bound fraction [3] [%] | percent of relative activity in Weakly Bound fraction [4] [%] | percent of relative activity in Strongly Bound fraction [5] [%] | percent of relative activity in Unbound fraction [6] [%] | percent of relative activity in Unbound fraction [7] [%] | percent of relative activity in Strongly Bound fraction [8] [%] | percent of relative activity in Weakly Bound fraction [9] [%] | percent strongly bound to the WGA column [10] [%] | Substance
1 | 0 | 9 | 91 | – | – | – | – | – | – | – | anchorless rhTNSALP after neuraminidase digestion (from UniProt P05186 18-505) (enzyme)
2 | – | – | – | 32 | 65 | 3 | 4 | 36 | 60 | – | CD6-TNSALP (human TNSALP anchorless at the C-terminal tagged with a stretch of six L-Asp) (from UniProt P05186 18-505) (enzyme)
3 | – | – | – | 66 | 33 | 0 | 3 | 38 | 59 | 34 | anchorless recombinant human TNSALP (human tissue-nonspecific alkaline phosphatase anchorless at the C-terminal) (from UniProt P05186 18-505) (enzyme)

Further lines, the substance ahead of its results:

Row | Substance | percent of relative activity in Unbound fraction [1] [%] | percent of relative activity in Weakly Bound fraction [2] [%] | percent of relative activity in Strongly Bound fraction [3] [%] | percent of relative activity in Weakly Bound fraction [4] [%] | percent of relative activity in Strongly Bound fraction [5] [%] | percent of relative activity in Unbound fraction [6] [%] | percent of relative activity in Unbound fraction [7] [%] | percent of relative activity in Strongly Bound fraction [8] [%] | percent of relative activity in Weakly Bound fraction [9] [%] | percent strongly bound to the WGA column [10] [%]
4 | CD8-TNSALP (human TNSALP anchorless at the C-terminal tagged with a stretch of eight L-Asp) (from UniProt P05186 18-505) (enzyme) | – | – | – | 23 | 76 | 1 | 2 | 39 | 59 | –
5 | CD8-TNSALP after neuraminidase digestion (from UniProt P05186 18-505) (enzyme) | 4 | 4 | 92 | – | – | – | – | – | – | –
6 | CD6-TNSALP after neuraminidase digestion (from UniProt P05186 18-505) (enzyme) | 2 | 11 | 86 | – | – | – | – | – | – | –
